For the test, the target named is T1, human claudin-4 (residues 1-183), tag-free (human, UniProt O14493 1-183).
T1 construct: also called tag-free claudin-4
T1 sequence (looked up): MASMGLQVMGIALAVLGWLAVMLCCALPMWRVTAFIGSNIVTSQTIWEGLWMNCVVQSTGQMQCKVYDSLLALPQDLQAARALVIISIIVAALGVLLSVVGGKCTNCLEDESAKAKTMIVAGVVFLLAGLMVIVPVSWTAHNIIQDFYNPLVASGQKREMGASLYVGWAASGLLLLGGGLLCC
The test is described as follows: SPR. The note with it: both partners purified.

B1: GST-tagged C-CPE (C-terminal fragment of Clostridium perfringens enterotoxin, residues 185-319) (domain or fragment)
chain: RCVLTVPSTDIEKEILDLAAATERLNLTDALNSNPAGNLYDWRSSNSYPWTQKLNLHLTITATGQKYRILASKIVDFNIYSNNFNNLVKLEQSLGDGVKDHYVDISLDAGQYVLVMKANSSYSGNYPYSILFQKF
A word on the Kd: it is a measure of binding affinity in units of concentration. A higher Kd goes with a looser complex. B1 had a Kd of 3.4 nM. This lies in the single-digit nanomolar range.

(Values after PMC4964339 (Scientific Reports, 2016).)
